Legend:
[1] = biological target: T1, CsrA-Hetero (CsrA-WT-His6/CsrA-N55D-strep) N55D (Bacillus subtilis (3610?)) (UniProt P33911+P33911); assay: EMSA; details: 40 mM Tris-HCl pH 7.5, 4 mM MgCl2, 100 mM KCl, 20 ng/ul yeast RNA, 20 mM DTT, 10% glycerol, 4 U RNase inhibitor, 20 pM RNA, 37 C 30 min (FliW added for a …)
T1 sequence 1: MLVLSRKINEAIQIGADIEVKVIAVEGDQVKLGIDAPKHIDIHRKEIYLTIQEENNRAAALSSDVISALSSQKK
T1 sequence 2: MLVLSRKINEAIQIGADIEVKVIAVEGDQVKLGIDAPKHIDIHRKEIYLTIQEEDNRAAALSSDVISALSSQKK

[2] = biological target: T2, CsrA-N55D-strep N55D (Bacillus subtilis (3610?)) (UniProt P33911); assay: EMSA; details: 40 mM Tris-HCl pH 7.5, 4 mM MgCl2, 100 mM KCl, 20 ng/ul yeast RNA, 20 mM DTT, 10% glycerol, 4 U RNase inhibitor, 20 pM RNA, 37 C 30 min (FliW added for a …)
T2 sequence: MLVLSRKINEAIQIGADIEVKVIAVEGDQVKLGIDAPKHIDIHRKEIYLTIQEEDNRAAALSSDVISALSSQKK

[3] = biological target: T3, CsrA-WT-His6 (Bacillus subtilis (3610?)) (UniProt P33911); assay: EMSA; details: 40 mM Tris-HCl pH 7.5, 4 mM MgCl2, 100 mM KCl, 20 ng/ul yeast RNA, 20 mM DTT, 10% glycerol, 4 U RNase inhibitor, 20 pM RNA, 37 C 30 min (FliW added for a …)
T3 sequence: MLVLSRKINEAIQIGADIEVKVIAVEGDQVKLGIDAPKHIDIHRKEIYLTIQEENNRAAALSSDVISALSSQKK

[4] = biological target: T4, FliW (Bacillus subtilis (3610?)) (UniProt P96503); assay: EMSA; details: 40 mM Tris-HCl pH 7.5, 4 mM MgCl2, 100 mM KCl, 20 ng/ul yeast RNA, 20 mM DTT, 10% glycerol, 4 U RNase inhibitor, 20 pM RNA, 37 C 30 min (FliW added for a …)
T4 sequence: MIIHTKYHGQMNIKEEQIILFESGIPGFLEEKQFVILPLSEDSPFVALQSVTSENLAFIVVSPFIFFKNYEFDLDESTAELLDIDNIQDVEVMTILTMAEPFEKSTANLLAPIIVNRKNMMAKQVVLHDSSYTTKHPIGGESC

[5] = test system: CsrA-Hetero (CsrA-WT-His6/CsrA-N55D-strep) (Bacillus subtilis (3610?)); assay: EMSA; details: apparent Kd; main text gives 460 nM; 40 mM Tris-HCl pH 7.5, 4 mM MgCl2, 100 mM KCl, 20 ng/ul yeast RNA, 20 mM DTT, 10% glycerol, 4 U RNase inhibitor, 20 pM RNA, 37 C 30 min (FliW added for a …)
[6] = test system: CsrA-N55D-strep (Bacillus subtilis (3610?)); assay: EMSA; details: apparent Kd; 40 mM Tris-HCl pH 7.5, 4 mM MgCl2, 100 mM KCl, 20 ng/ul yeast RNA, 20 mM DTT, 10% glycerol, 4 U RNase inhibitor, 20 pM RNA, 37 C 30 min (FliW added for a …)
[7] = test system: CsrA-WT-His6 (Bacillus subtilis (3610?)); assay: EMSA; details: apparent Kd; main text gives 290 nM; 40 mM Tris-HCl pH 7.5, 4 mM MgCl2, 100 mM KCl, 20 ng/ul yeast RNA, 20 mM DTT, 10% glycerol, 4 U RNase inhibitor, 20 pM RNA, 37 C 30 min (FliW added for a …)
[8] = test system: FliW (Bacillus subtilis (3610?)); assay: EMSA; details: apparent Kd; FliW alone; 40 mM Tris-HCl pH 7.5, 4 mM MgCl2, 100 mM KCl, 20 ng/ul yeast RNA, 20 mM DTT, 10% glycerol, 4 U RNase inhibitor, 20 pM RNA, 37 C 30 min (FliW added for a …)
[9] = biological target: T5, CsrA^N55D-strep (monomer co-expressed with CsrA^WT-His6) (Bacillus subtilis, UniProt P33911 1-74, N55D); assay: sequential affinity co-purification with SDS-PAGE; both chains co-expressed from one vector in E. coli; Ni-NTA by the His6 tag, then Strep-Tactin by the Strep tag, then size exclusion; Coomassie-stained denaturing gel, densitometry; details: partners not purified
T5 construct: CsrA of Bacillus subtilis with N55D; Same chain as in m2 and m3; Written as a single chain for the pair row of the heterodimer; also called CsrA^N55D-strep tag; source: Rosetta-gami E. coli, co-expressed with CsrA^WT-His6 from dual-expression vector pRO76
T5 sequence (looked up): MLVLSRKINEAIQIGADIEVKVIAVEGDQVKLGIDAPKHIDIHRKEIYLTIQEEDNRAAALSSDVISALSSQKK

With “GGUAGCCGGGAGGAGGCGCAAAAGACUCAGCCAGUUACAAAAUAAGGGCACAAGGACGUGCCUUAACAACAUAUUCAGGGAGGAACAAAACAAUGAGAAUU [hag 5' UTR transcript +1 to +100]” the Kd [1] was 458 nM, the Kd [2] was 960 nM and the binding [2] was “binds”. For the same molecule, the Kd [3] was 287 nM and the Kd [4] was 1110 nM.

hag 5' UTR transcript +1 to +100 was tested, and the Kd [5] was 458 nM, the Kd [6] was 960 nM and the Kd [7] was 287 nM. It also gave a Kd [8] of 1110 nM.

B1: CsrA^WT-His6 (monomer co-expressed with CsrA^N55D-strep) (natural protein, Bacillus subtilis, UniProt P33911 1-74, looked up)
chain: MLVLSRKINEAIQIGADIEVKVIAVEGDQVKLGIDAPKHIDIHRKEIYLTIQEENNRAAALSSDVISALSSQKK
notes: CsrA of Bacillus subtilis, wild type, amplified from pCSB9; Same chain as in m1 and m3; Written as a single chain for the pair row of the heterodimer; also called CsrA-His6; source: Rosetta-gami E. coli, co-expressed with CsrA^N55D-strep from dual-expression vector pRO76
With B1 the “stoichiometry N” value [9] was 0.88.
